The target in the experiment is GST-SPAK 63–390 (mouse, UniProt Q9Z1W9 63-390). The experiment in a line: pull-down.

The values below come from article PMC5167558 (Biochemistry, 2015).

B1: His6-SPAK 63–390 (domain or fragment)
chain: not shown
For B1, the binding result is listed as “binds”.
